What was measured:
HT29 tumor = assay: SC HT29 colorectal tumor xenograft; assay type: in vivo, athymic NCr-nu/nu mice; conditions: LT1009 50 mg/kg ip q2d; Avastin 20 mg/kg iv q4d; 5-FU 75 mg/kg ip q4d
Protocol: Nude mice were implanted sc near the right flank with one fragment per mouse of HT29 tumor from an in vivo passage. All treatments were initiated the day when 60 mice in each experiment established tumors ranging in size from approximately 100 to 200 mm^3. There were ten mice per treatment group. […] 75 mg/kg 5-FU and 20 mg/kg Avastin were administered ip and iv at a dosage of 75 mg/kg/dose and 20 mg/kg/dose, respectively, q4d, injected in a volume of 0.1 mL/10 g body weight.
(§1) Animals were observed daily for mortality. Tumor dimensions and body weights were collected twice weekly starting with the first day of treatment and including the day of study termination. When the median tumor in the vehicle-treated control group in each study reached approximately 4,000 mg, the study was terminated. Tumors from each animal were harvested, wet weights were recorded, and tumors were processed for determination of MVD by CD-31 staining. Tumor weights (mg) were calculated using the equation for an ellipsoid sphere (l×w^2)/2=mm^3, where l and w refer to the larger and smaller dimensions collected at each measurement and assuming unit density (1 mm^3=1 mg).

[1] = GLP 28-day safety toxicology study of LT1009 in monkeys; assay type: in vivo
Protocol: In addition, blood was collected from recovery animals 48, 72, 144 and 240 hours following the end of the last dose. Parameters monitored during this study included mortality, clinical signs, body weight, qualitative evaluation of the food consumption, ophthalmology, electrocardiography, and clinical pathology (hematology, clinical chemistry, coagulation and urinalysis). Blood samples were also collected for immunophenotyping assessments, at pre-treatment, on the last day of treatment, and on days 35, 42 and at the end of the recovery period. At termination, a macroscopic examination was performed and selected organs were weighed. Histological evaluation of tissues was conducted on all animals.

[2] = Circular dichroism thermal denaturation of LT1009; assay type: physicochemical
Protocol: Circular dichroism spectroscopy was performed separately from the formulation studies. An Aviv 202 CD spectrophotometer was used to perform these analyses. Near UV CD spectra were collected from 400 nm to 250 nm. In this region, the disulfides and aromatic side chains contribute to the CD signals. In the far UV wavelength region (250-190 nm), the spectra are dominated by the peptide backbone. Thermal denaturation curves were generated by monitoring at 205 nm, a wavelength commonly used for b-sheet proteins. Data was collected using 0.1 mg/ml samples with heating from 25° C. to 85° C. Data were collected in 1° C. increments. The total time for such a denaturation scan was between 70 and 90 minutes. The averaging time was 2 seconds.

COLO205 tumor = assay: SC COLO205 colorectal tumor xenograft; assay type: in vivo, nude NCr (nu/nu) mice
Protocol: Nude mice were implanted sc near the right flank with one fragment per mouse of COLO 205 tumor from an in vivo passage. All treatments were initiated the day when 60 mice in each experiment established tumors ranging in size from approximately 100 to 200 mm3. […] Avastin was administered iv at a dosage of 40 mg/kg/dose on a q7d schedule, injected in a volume of 0.1 mL/20 g body weight. Paclitaxel (positive control), was administered iv at a dosage of 15 mg/kg/dose on a q1d×5 schedule, injected in a volume of 0.1 mL/10 g body weight.
as §1, with “recorded,” for “recorded, and”, “microvascular densities (MVD)” for “MVD”

[3] = BIAcore binding of murine anti-S1P mAb to S1P immobilized on chip; conditions: read-out: affinity (Kd) for S1P
Protocol: Binding kinetics: The binding kinetics of S1P to its receptor or other moieties has, traditionally, been problematic because of the nature of lipids. Many problems have been associated with the insolubility of lipids. For BIAcore measurements, these problems were overcome by directly immobilizing S1P to a BIAcore chip. Antibody was then flowed over the surface of the chip and alterations in […] were measured to determine the binding characteristics of the antibody to S1P. To circumvent the bivalent binding nature of antibodies, S1P was coated on the chip at low densities. Additionally, the chip was coated with various densities of S1P (7, 20, and 1000 RU) and antibody binding data was globally fit to a 1:1 interaction model.

CNV lesions = assay: Laser-induced rupture of Bruch's membrane, murine CNV model (Example 4); assay type: in vivo, C57BL6/J mice; conditions: 0.5 μg
Protocol: Female C57BL6/J mice were subjected to laser-induced rupture of Bruch's membrane and administered either 0.5 μg of Sphingomab or an isotype-matched non-specific (NS) antibody diluted in 2 μl of physiological saline. Mice were sacrificed 14 and 28 days after laser rupture.
To induce CNV lesions, the pupils were dilated with ophthalmic tropicamide (0.5%) and phenylephrine (2.5%). A coverslip was placed on the eye. An Oculight GL 532 nm (Iridex Corporation, Mountain View, Calif.) coupled to a slit lamp set to deliver a 100 msec pulse at 150 mW with a 50 μm spot size was used to rupture Bruch's membrane in three quadrants of the right eye located approximately 50 μm from the optic disc at relative 9, 12 and 3 o'clock positions. The left eye served as an uninjured control in all cases. Any lesion not associated with a vapor bubble or lesions that became confluent were excluded from analysis.
To measure CNV lesion size, choroidal flatmounts of the sclera-choroid-RPE complex were prepared and stained for vasculature (R. communis agglutinin I; red) and pericytes (CD 140b; green). […]
To assess collagen deposition, the sclera-choroid-RPE complex was stained with Masson's Trichrome. […] Approximately 30 sections per lesion were evaluated. Quantitation of the volume of collagen deposition was calculated in the same manner as described for CNV lesion volume.

[4] = Surface plasmon resonance (Biacore 2000) binding to S1P-coated chip; conditions: read-out: Binding Affinity (KD1)
Protocol: Each concentration was tested in duplicate. […] All data were collected at 25° C.

[5] = LT1009 25 mg/kg ip q3d, increased to 75 mg/kg on Day 21
[6] = LT1009 50 mg/kg ip q3d, Avastin 40 mg/kg iv q7d, Paclitaxel 15 mg/kg iv q1d×5

| Molecule | % Reduction compared to Vehicle-Treated Mice (HT29 tumor) [%] | Final Tumor Weights (HT29 tumor) [mg] | absolute number of T cells on Day 28 ([1]; 100 mg/kg) | mean lymphocyte counts (+/-SD) after treatment ([1]; 100 mg/kg, males and females combined) | tolerability ([1]; 3, 10, 30 and 100 mg/kg every third day over 28 days) | No Observed Toxic Effect Level (NOTEL) ([1]; 30-minute i.v. infusion every third day for 28 days) [mg/kg] | apparent Tm ([2]; pH 6.0) | apparent Tm ([2]; pH 7.2) | % Reduction compared to Vehicle-Treated Mice (COLO205 tumor; [5]) [%] | Final Tumor Weights (COLO205 tumor; [5]) [mg] | % Reduction compared to Vehicle-Treated Mice (COLO205 tumor; [6]) [%] | Final Tumor Weights (COLO205 tumor; [6]) [mg] | Kd [3] [pM] | choroidal neovascularization (CNV lesions; 14 and 28 days after laser rupture) | fibrosis associated with CNV lesion formation (CNV lesions; 28 days after laser rupture) | Kd [4] [pM] |
| --- | --- | --- | --- | --- | --- | --- | --- | --- | --- | --- | --- | --- | --- | --- | --- | --- |
| LT1009: humanized anti-S1P IgG1/kappa mAb with Cys to Ala in HCDR2, light chain with 5 backmutations; SEQ ID NO: 31/32 | 13 | 2390.63 | statistically significant decrease | 3.18+/−1.25 10^9 cells/L | well tolerated | 100 | about 77 °C | approximately 73 °C | 20 | 2465.60 | 32 | 2071.17 | – | – | – | – |
| LT1002: murine anti-S1P monoclonal antibody, IgG1 kappa, from hybridoma clone 306D326.26 (antibody, listed as Mus sp., V domains shown) VH: QAHLQQSDAELVKPGASVKISCKVSGFIFIDHTIHWMKQRPEQGLEWIGCISPRHDITKYNEMFRGKATLTADKSSTTAYIQVNSLTFEDSAVYFCARGGFYGSTIWFDFWGQGTTLTVS VL: ETTVTQSPASLSMAIGEKVTIRCITTTDIDDDMNWFQQKPGEPPNLLISEGNILRPGVPSRFSSSGYGTDFLFTIENMLSEDVADYYCLQSDNLPFTFGSGTKLEIK | – | – | – | – | – | – | – | – | – | – | – | – | < 100 | dramatically attenuates | significantly reduces | 26 |

Reference: patent publication US8026342B2, “Compositions and methods for binding sphingosine-1-phosphate” (Lpath, Inc., priority 2006, dated 2011)
